In patent US20260374883 (published 2026):
Numbering of substitutions follows the chain as printed. Blank lines part the entries; values can stand above or below the binder they belong to.

What was measured:
[1] = target: T1, rat CX3CR1 (rat, UniProt P35411); experiment: FACS
T1 chain: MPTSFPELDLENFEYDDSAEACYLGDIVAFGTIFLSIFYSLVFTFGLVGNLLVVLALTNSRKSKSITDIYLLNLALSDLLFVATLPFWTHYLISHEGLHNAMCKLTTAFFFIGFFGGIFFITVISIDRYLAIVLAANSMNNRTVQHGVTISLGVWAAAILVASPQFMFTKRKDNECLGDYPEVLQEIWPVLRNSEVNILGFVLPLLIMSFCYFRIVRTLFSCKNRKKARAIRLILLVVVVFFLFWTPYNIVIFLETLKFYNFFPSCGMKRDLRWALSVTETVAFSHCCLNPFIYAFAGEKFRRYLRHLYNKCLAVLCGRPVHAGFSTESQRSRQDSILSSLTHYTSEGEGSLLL

[2] = target: T2, mouse CX3CR1 (mouse, UniProt Q9Z0D9); experiment: FACS
T2 chain: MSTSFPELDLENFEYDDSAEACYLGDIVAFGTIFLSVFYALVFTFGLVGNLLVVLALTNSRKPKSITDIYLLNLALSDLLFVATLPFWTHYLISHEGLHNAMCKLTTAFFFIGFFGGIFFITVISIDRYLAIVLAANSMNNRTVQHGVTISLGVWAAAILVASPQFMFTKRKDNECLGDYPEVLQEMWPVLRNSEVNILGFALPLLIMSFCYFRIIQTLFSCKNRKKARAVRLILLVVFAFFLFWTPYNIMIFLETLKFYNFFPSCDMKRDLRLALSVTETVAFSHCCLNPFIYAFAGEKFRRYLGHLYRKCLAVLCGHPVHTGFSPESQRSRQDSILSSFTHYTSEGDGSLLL

binding result [1]: no binding
binding result [2]: no binding
B1: m1F8-2 (antibody, V domains shown)
VH: QVQLQQSGAELARPGASVKLSCKASGFTFTNYWMQWIKQRPGQGLEWIGAIYPGSGESRYTRKFKGKATLTADKSSSTAYMQLNSLASEDSAVYYCARWAGYSRNAAYWGQGTLVTVSA
VL: DVLMTQTPLSLPVSLGDQASISCRSRQSIVHSSGNTYLEWYLQKPGQSPKLLIYKVSNRFSGVPDRFSGSGSGTDFTLKISRVEAEDLGVYYCFQGSHIPPTFGGGTKLEIK

binding result [1]: no binding
binding result [2]: no binding
B2: m1F8-1 (antibody, V domains shown)
VH: B1 VH
VL: B1 VL with R26S
